For assay [1], the target named is T1, human NPR1 full-length protein overexpressed on CHO-K1 cells (human, UniProt P16066 33-1061).
T1 sequence: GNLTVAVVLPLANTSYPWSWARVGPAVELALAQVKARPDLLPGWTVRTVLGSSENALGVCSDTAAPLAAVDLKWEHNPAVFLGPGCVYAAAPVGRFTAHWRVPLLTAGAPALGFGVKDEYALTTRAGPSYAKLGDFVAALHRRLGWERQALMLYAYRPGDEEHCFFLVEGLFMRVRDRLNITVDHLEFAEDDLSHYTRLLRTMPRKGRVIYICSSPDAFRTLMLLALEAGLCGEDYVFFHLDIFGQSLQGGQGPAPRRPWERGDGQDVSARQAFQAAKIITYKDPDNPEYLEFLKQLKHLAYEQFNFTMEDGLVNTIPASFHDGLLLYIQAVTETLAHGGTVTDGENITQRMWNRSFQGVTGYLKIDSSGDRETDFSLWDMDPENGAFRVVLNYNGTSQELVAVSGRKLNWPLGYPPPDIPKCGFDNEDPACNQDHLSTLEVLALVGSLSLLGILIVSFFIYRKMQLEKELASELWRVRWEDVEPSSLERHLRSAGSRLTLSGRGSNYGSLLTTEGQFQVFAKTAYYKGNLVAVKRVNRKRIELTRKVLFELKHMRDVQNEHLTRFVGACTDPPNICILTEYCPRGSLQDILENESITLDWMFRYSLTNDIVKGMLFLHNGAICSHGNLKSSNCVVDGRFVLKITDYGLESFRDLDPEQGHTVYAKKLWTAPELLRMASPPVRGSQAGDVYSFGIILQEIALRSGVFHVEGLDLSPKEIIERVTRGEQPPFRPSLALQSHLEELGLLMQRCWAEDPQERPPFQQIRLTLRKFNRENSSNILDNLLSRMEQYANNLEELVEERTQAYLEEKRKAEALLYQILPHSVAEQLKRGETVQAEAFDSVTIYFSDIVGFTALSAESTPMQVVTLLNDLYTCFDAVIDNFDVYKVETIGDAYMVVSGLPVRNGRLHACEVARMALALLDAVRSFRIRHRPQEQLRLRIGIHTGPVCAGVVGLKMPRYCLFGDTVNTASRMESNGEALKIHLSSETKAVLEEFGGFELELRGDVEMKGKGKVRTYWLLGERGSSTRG
Kind of assay: cell-based or functional assay.

The target in assay [2] is T1, human NPR1 full-length protein …. Kind of assay: cell-based or functional assay. The source holds these as a separate data set.
Assay [3] has the same target. Kind of assay: cell-based or functional assay. This is another data set of the same source.
The next assay addresses T2, hNPR2 (human, UniProt P20594 23-458, limits assumed).
T2 construct: Commercial protein; construct not described; also called hNPR2 antigen
T2 sequence (looked up): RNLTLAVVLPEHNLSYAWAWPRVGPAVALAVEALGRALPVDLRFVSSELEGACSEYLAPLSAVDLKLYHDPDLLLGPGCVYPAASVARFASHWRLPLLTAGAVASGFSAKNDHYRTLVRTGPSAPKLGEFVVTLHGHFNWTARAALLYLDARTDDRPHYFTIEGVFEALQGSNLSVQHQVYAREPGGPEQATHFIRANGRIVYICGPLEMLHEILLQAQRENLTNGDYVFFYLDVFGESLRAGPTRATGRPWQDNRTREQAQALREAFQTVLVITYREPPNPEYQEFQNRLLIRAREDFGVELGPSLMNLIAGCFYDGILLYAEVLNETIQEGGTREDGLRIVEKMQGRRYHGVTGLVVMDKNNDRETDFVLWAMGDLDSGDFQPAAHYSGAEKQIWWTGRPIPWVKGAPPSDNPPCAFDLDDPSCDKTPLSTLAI
Kind of assay: ELISA, plate coated with 4 µg/mL antigen. On the technique in general: ELISA stands for enzyme-linked immunosorbent assay.

For assay [4], the target named is T3, fusion protein of the human NPR1 protein extracellular domain and human-IgG1-Fc (human).
T3 construct: also called hNPR1-hFc; hNPR1
Kind of assay: ELISA, plate coated with 4 µg/mL hNPR1 antigen.

Assay [5] deals with T4, cynomolgus monkey NPR1 full-length protein overexpressed on CHO-K1 cells (cynomolgus monkey).
T4 construct: whole, on cells; also called cNPR1-CHOK1; cNPR1 CHO-K1
Kind of assay: flow cytometry on cNPR1-expressing CHO-K1 cells, without ANP.

Assay [6] deals with T1, human NPR1 full-length protein …. Kind of assay: flow cytometry on hNPR1-expressing CHO-K1 cells, without ANP.
The target of assay [7] is T4, cynomolgus monkey NPR1 full-length …. Kind of assay: flow cytometry on cNPR1-expressing CHO-K1 cells, antibody pre-mixed with 10 nM ANP. (Flow cytometry measures light scatter and fluorescence of single cells or particles in a stream.)
The target in assay [8] is T1, human NPR1 full-length protein …. Kind of assay: flow cytometry on hNPR1-expressing CHO-K1 cells, antibody pre-mixed with 10 nM ANP.
The target is the same in assay [9]. Kind of assay: cell-based or functional assay. This is another data set of the same source.
For assay [10] the target is unchanged. Kind of assay: cell-based or functional assay. This is another data set of the same source.
The target is the same in assay [11]. Kind of assay: cell-based or functional assay. The source holds these as a separate data set.

Numbering of substitutions follows the chain as printed. Where two headings read alike, the source gives them in different places.

T3 sequence (chain, as listed by the source limits assumed): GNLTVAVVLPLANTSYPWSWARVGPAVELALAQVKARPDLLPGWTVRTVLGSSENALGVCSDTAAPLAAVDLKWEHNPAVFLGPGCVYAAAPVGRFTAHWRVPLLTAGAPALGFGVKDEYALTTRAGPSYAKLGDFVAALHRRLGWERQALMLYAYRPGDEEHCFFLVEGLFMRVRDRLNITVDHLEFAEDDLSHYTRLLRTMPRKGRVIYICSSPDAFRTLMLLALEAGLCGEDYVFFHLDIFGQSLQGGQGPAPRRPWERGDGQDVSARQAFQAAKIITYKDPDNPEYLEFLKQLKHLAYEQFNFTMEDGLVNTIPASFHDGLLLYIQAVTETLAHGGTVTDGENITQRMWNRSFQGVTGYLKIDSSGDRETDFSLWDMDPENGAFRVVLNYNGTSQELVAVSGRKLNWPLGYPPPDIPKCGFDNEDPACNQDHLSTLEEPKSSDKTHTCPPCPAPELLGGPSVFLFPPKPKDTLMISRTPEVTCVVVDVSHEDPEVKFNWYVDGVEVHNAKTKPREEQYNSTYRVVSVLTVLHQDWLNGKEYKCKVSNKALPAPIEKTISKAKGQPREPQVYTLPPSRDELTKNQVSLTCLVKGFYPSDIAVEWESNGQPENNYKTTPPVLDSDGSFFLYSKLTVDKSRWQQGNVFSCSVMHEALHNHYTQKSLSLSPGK

B1: Hu102H5L6 (antibody, human IgG1, kappa, L234A L235A, V domains shown)
VH: DVKLVESGEGLVKPGGSLRLSCAASGFTFSTYGMSWVRQAPGKRLEWVAYISRGGDYIYYADTVKGRFTISRDNAKNSLYLQMNSLRAEDTAVYYCTRDQTTVVVHWYFDVWGQGTTVTVSS
VL: DIQLTQSPSSLSASVGDRVTITCSASSSINYMHWYQQKPGKSPKRWIYDTSKLASGVPSRFSGSGSGTDYTLTISSLQPEDFATYYCHQRNSYTFGGGTKVEIKR
Regarding B1, in assay [1], the “cGMP production: EC50” value stood at 43.6 nM, the “cGMP production: Emax” value worked out at 0.59 and the “cGMP production: Emin” value turned out to be 0.21.

B2: Hu135H2L1 (antibody, human IgG1, kappa, L234A L235A, V domains shown)
VH: B1 VH with T28S, F29I, S52N, R53S, D56N, Q100R, V103I
VL: DIQLTQSPSSLSASVGDRVTITCSASSSLNFMHWYQQKPGKSPKRWIYDTSKLASGVPSRFSGSGSGTDYTLTISSLQPEDFATYYCHQRSSTFGGGTKVEIKR
Turning to B2, in assay [2], the “cGMP production: EC50” value is 186 nM, the “cGMP production: Emax” value worked out at 0.45 and the “cGMP production: Emin” value was found to be 0.143.

B3: Hu102H3L6 (antibody, human IgG1, kappa, L234A L235A, V domains shown)
VH: B1 VH with G33A
VL: B1 VL
Turning to B3, in assay [1], the “cGMP production: EC50” value amounted to 48.5 nM, the “cGMP production: Emax” value amounted to 0.61 and the “cGMP production: Emin” value was 0.16.

B4: Hu135H3L1 (antibody, human IgG1, kappa, L234A L235A, V domains shown)
VH: B1 VH with T28S, F29I, S52N, R53S, D56N, T63S, Q100R, V103I
VL: B2 VL
notes: Humanized, human IgG1 LALA/kappa; also called Hul35H3L1
For orientation: EC50 means the concentration at which the effect is half-maximal. With B4, in assay [2], the “cGMP production: EC50” value stood at 171 nM, the “cGMP production: Emax” value was determined as 0.43 and the “cGMP production: Emin” value came to 0.179. For the same molecule, in assay [3], the “Ratio (without ANP) of NPR1 antigens remaining on the cell surface after endocytosis to the initial number, 10 min, 20 µg/mL” value was determined as 0.85 ratio; the “Ratio (without ANP) of NPR1 antigens remaining on the cell surface after endocytosis to the initial number, 1 h, 20 µg/mL” value is 0.67 ratio; the “Ratio (without ANP) of NPR1 antigens remaining on the cell surface after endocytosis to the initial number, 7 hrs, 20 µg/mL” value is 0.63 ratio; the “Ratio (without ANP) of NPR1 antigens remaining on the cell surface after endocytosis to the initial number, 24 hrs, 20 µg/mL” value was found to be 0.76 ratio. Also, in the assay with hNPR2, the binding result was “no binding (tested: 20 µg/mL (highest concentration))”. This molecule also came in with a concentration for a half-maximal effect (EC50) in [4] of 0.02 nM.

B5: Hu135H1L1 (antibody, human IgG1, kappa, L234A L235A, V domains shown)
VH: B1 VH with S52N, R53S, D56N, Q100R, V103I
VL: B2 VL
On to B5, for which, in [2], the “cGMP production: EC50” value amounted to 116 nM, the “cGMP production: Emax” value was 0.43 and the “cGMP production: Emin” value was found to be 0.22.

B6: Hu102H4L6 (antibody, human IgG1, kappa, L234A L235A, V domains shown)
VH: B1 VH with T31S, G33A, T63S, T91S
VL: B1 VL
notes: Humanized, human IgG1 LALA/kappa; also called Hul02H4L6
With B6, in [1], the “cGMP production: EC50” value is 45.9 nM, the “cGMP production: Emax” value was determined as 0.65 and the “cGMP production: Emin” value came to 0.17. Further, in assay [3], the “Ratio (without ANP) of NPR1 antigens remaining on the cell surface after endocytosis to the initial number, 10 min, 20 µg/mL” value came to 1.14 ratio; the “Ratio (without ANP) of NPR1 antigens remaining on the cell surface after endocytosis to the initial number, 1 h, 20 µg/mL” value is 0.58 ratio; the “Ratio (without ANP) of NPR1 antigens remaining on the cell surface after endocytosis to the initial number, 7 hrs, 20 µg/mL” value amounted to 0.53 ratio; the “Ratio (without ANP) of NPR1 antigens remaining on the cell surface after endocytosis to the initial number, 24 hrs, 20 µg/mL” value came out at 0.73 ratio. The binding result with hNPR2 is listed as “no binding (tested: 20 µg/mL (highest concentration))”. Also, a half-maximal effect in assay [4] (EC50) was put at 1.32 nM.

B7: CHI-135 (antibody, human IgG1, kappa, V domains shown)
VH: DVKLVESGEGLVKPGGSLKLSCVASGFSISTYGMSWVRQTPEKRLEWVAYINSGGNYIYYADTVKGRFTISRDNARNTLYLQMSSLKSEDTAMYYCTRDRTTIVVHWYFDVWGTGTTVTVSS
VL: QIVLTQSPAIMSASPGEKVTMTCSASSSLNFMHWYQQKPGTSPKRWIYDTSKLASGVPARFSGSGSGTSYSLTISSMEAEDAATYYCHQRSSTFGGGTKLELKR
notes: Chimeric human IgG1/kappa; also called NPR1-CHAb-SFM-135; chimeric antibody of murine antibody 135
In the case of B7, the 50% effective concentration (EC50) worked out at 3.59 nM in [5], 4.39 nM in [6], 1.63 nM in assay [7] and 2.49 nM in assay [8].

B8: Hu140H5L5-11 (antibody, human IgG1, kappa, L234A L235A, V domains shown)
VH: QVQLVQSGAEVKKPGASVKVSCKASGYTFTSYWMHWVRQAPGQGLEWMGRIDPNSGVTKYNEKFKSRVTLTVDKPSSPAYMELSSLRSEDTAVYYCARSGGLRRYFDVWGQGTTVTVSS
VL: EIVLTQSPATLSLSPGERAQLSCSASSSVSYMYWYQQKPGQAPRLLIYDTYNLASGVPDRFSGSGSGTSYTLTISRLEPEDFAVYYCQQWSSYPPTFGAGTKLEIKR
notes: Humanized, human IgG1 LALA/kappa
Take B8: the “cGMP production: EC50” value in assay [9] was found to be 36 nM. In [3], the “Ratio (without ANP) of NPR1 antigens remaining on the cell surface after endocytosis to the initial number, 10 min, 20 µg/mL” value is 1.31 ratio; the “Ratio (without ANP) of NPR1 antigens remaining on the cell surface after endocytosis to the initial number, 1 h, 20 µg/mL” value was 0.86 ratio; the “Ratio (without ANP) of NPR1 antigens remaining on the cell surface after endocytosis to the initial number, 7 hrs, 20 µg/mL” value came to 1.11 ratio; the “Ratio (without ANP) of NPR1 antigens remaining on the cell surface after endocytosis to the initial number, 24 hrs, 20 µg/mL” value came to 1.02 ratio. Also, the binding result with hNPR2 is “no binding (tested: 20 µg/mL (highest concentration))”. In assay [4], this molecule registered an EC50 of 8.65 nM.

B9: Hu128H3L2 (antibody, human IgG1, kappa, L234A L235A, V domains shown)
VH: B8 VH with Q1E, G100S, G101Y, R103G
VL: B8 VL with Q20T, S26T, Q41S, A42S, G56R, V57I, D59A, S69D, A99Q
For B9, the “cGMP production: EC50” value in assay [10] is 4.6 nM.

B10: Hu140H5L5 (antibody, human IgG1, kappa, L234A L235A, V domains shown)
VH: B8 VH
VL: B8 VL with Q20T, D59A
Turning to B10, the “cGMP production: EC50” value in assay [9] is 40.9 nM.

B11: Hu128H3L1 (antibody, human IgG1, kappa, L234A L235A, V domains shown)
VH: B8 VH with Q1E, G100S, G101Y, R103G
VL: B8 VL with Q20T, S26T, G56R, V57I, D59A, S69D, A99Q
For B11, the “cGMP production: EC50” value in assay [10] came out at 5.8 nM.

B12: CHI-127 (antibody, human IgG1, kappa, V domains shown)
VH: QAYLQQSGPELVKPGASVKISCKASGYSFTGYFMNWVMQSHGKSLEWIGRINPYNGDTFYNQKFKGKATLTVDKSSSTVHMELRSLASEDSAVYYCARRGYGNRGYWYFDVWGAGTTVTVSS
VL: NIVLTQSPASLAVSLGQRATISCRASESVDSYGNSFMHWYQQKPGQPPKVLIYLASTLESGVPARFSGSGSRTDFTLTIDPVEADDAATYYCQQNNEDPLTFGAGTKLELKR
notes: Chimeric human IgG1/kappa; also called NPR1-CHAb-SFM-127-1; chimeric antibody of murine antibody 127
As to B12, in [11], the “cGMP production: EC50” value was 42.7 nM. Also, in [11], the “cGMP production: Emax” value came out at 0.43. Moreover, the “cGMP production: Emin” value in assay [11] worked out at 0.077. Besides, the concentration giving a half-maximal response (EC50) in assay [5] was 1.19 nM; in [6], 1.73 nM; in assay [7], 1.28 nM; in assay [8], 1.74 nM.

Values taken from patent EP4725963A1 (Jiangsu Hengrui Pharmaceuticals Co., Ltd., dated 2026).
